Target: WT hGRalpha (glucocorticoid receptor) (Homo sapiens, UniProt P04150 1-777)
Assay: EMSA; complex abolished by 50 ng unlabeled probe; 15 min at 25 C; 4.5% acrylamide/bisacrylamide (37:1) gel, 0.25x TBE (50 mM Tris, 50 mM boric acid, 1 mM EDTA); binding buffer and pH not stated (as in ref. 26)
Conditions: protein: ivt; chain copies: 2; label: 32P-dCTP (Klenow fill-in); 5' overhangs AGCT, filled in by Klenow for the labeled probe

Sequence of WT hGRalpha (glucocorticoid receptor) (P04150 whole entry): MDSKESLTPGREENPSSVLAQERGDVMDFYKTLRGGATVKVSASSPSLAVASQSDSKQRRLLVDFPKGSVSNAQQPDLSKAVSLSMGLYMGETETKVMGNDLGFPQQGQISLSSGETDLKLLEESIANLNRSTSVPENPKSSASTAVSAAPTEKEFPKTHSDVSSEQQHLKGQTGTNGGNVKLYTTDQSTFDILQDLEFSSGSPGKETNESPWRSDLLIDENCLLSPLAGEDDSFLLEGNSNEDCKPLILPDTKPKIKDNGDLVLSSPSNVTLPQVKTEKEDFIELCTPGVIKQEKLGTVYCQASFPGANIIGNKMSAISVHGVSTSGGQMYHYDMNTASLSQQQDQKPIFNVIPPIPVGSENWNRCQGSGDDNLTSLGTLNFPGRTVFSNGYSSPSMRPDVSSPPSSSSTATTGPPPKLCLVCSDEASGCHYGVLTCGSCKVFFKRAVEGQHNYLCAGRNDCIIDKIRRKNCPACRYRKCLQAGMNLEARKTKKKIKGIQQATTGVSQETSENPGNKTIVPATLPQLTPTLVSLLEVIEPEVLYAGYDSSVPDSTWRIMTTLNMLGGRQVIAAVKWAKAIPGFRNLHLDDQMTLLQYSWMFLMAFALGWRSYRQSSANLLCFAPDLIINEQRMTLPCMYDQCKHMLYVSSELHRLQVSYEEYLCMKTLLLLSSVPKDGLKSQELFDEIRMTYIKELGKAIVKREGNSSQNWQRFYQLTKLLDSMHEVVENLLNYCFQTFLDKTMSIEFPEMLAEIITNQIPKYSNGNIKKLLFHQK

B1: GRE consensus probe (dsDNA)
DNA 1: AGCTGCTCAGCTAGAACACTCTGTTCTCTACT
DNA 2: AGCTAGTAGAGAACAGAGTGTTCTAGCTAGC
B1: binds.
